Assay [1] deals with TA1 antibody. The experiment in a line: BIAcore surface plasmon resonance binding of PenI:C9 muteins to immobilized TA1. Also on record: species or system mouse. The note with it: 30 μg/mL injected; relative response of wild type PenI:C9 set to 100%. The source says: In order to analyze the different binding of the different PenI:C9 muteins to the TA1 antibody (TA1 was raised from a mouse that had been immunized with F1.2-C9 KLH by standard procedures; F1.2-C9 is the purified factor Xa cleavage product of prothrombin), a biosensor system using surface plasmon resonance detection (BIAcore, Pharmacia Biosensor) has been used. This system records the binding of the antigen to the immobilized TA1 in real time.
TA1 has been chemically immobilized onto the carboxymethylated dextran matrix of the sensor chip (CM5) using the amine coupling kit and the method provided by the manufacturer (Pharmacia Biosensor). For this purpose TA1 was diluted to 57 μg/mL in 10 mM Na-acetate buffer pH4. After activation of the sensor chip with 30 μl of a 1:1 mixture of 11.5 mg/mL N-hydroxysuccinimide (NHS) and 75 mg/ml N-ethyl-N'-(dimethylaminopropyl) carbodiimide (EDC) 5 μL of the TA1 solution was injected at a flow rate of 3 μL/min. […]
Each PenI:C9 and the native PenI protein was injected according to this program and a relative response in RU which represent the amount of penI:C9 mutein bound, was calculated by subtracting the RU of report point 1. from report point 2. Percent of binding was then calculated by setting the relative response of the wild type to 100%. […]

For assay [2], the system named is D011 cells. Put plainly: Loading of A20 APC and activation of D011 T cells, IL-2 release ELISA. Format: cell-based, murine. Particulars: DO11 and A20 cells, 24 hours. As to the method:
The efficacy of a fusion polypeptide of the invention to load APCs and activate T cells was tested. A penI:Ova fusion polypeptide (i.e., a fusion polypeptide containing the penI protein linked to an Ova target peptide) was employed as well as other materials. Three independent experiments were performed utilizing A20 APC and the D011 T cell […] cell line. D011 cells are specifically responsive to Ova loaded major histocompability complex class II (MHCII) molecules presented by A20 APCs. A20 cells were loaded with 5 μg purified penI:Ova fusion polypeptide or 5 μg synthetic Ova peptide (positive control synthesized by Mimetics, Chiron Corp.) for 1 hour. 1×10^5 D011 cells were added and incubated with the loaded A20 cells for 24 hours. The degree of activation of D011 cells was determined by the release of Interleukin 2 (IL-2) into the culture medium. After 24 hours of incubation supernatants were collected and analyzed in an ELISA format for IL-2 (using two anti-IL2 antibodies from Pharmacia).
The following Table summarizes the results of the three experiments and includes several negative controls. One of these controls is a PenI:Ova fusion protein containing the hen egg lysozyme (HEL) peptide preceded by the Factor Xa cleavage recognition site IEGRNLCNIPCSALLSS (SEQ ID NO: 55) and therefore should not stimulate D011 cells.
In general terms: In an ELISA, binding on a coated surface is turned into a signal by an enzyme label.

B1: PenI: penI repressor protein of Bacillus licheniformis without fusion peptide; negative control (protein, UniProt P06555 1-128, looked up)
Penicillinase repressor: MKKIPQISDAELEVMKVIWKHSSINTNEVIKELSKTSTWSPKTIQTMLLRLIKKGALNHHKEGRVFVYTPNIDESDYIEVKSHSFLNRFYNGTLNSMVLNFLENDQLSGEEINELYQILEEHKNRKKE
Consider B1, for which, in assay [1], the “Percent of binding to TA1” value is reported as < 5%. In addition, the IL-2 release in assay [2] (Experiment 1), in assay [2] (Experiment 2) and in assay [2] (Experiment 3) was 0 pg/mL in each case.

(Values after patent US5763284A, “Methods for peptide synthesis and purification” (Dade International Inc., priority 1995, dated 1998).)
